Results: patent US20240368286A1 (SHANGHAI JMT BIO TECHNOLOGY, published 2024)
Read-outs that look alike come from different tables or passages of the source.

What was measured:
Human GFRAL-His protein = target: T1, Human GFRAL-His protein (human, UniProt Q6UXV0 19-351); assay: ELISA, antigen coated on plate, purified antibody titrated, HRP anti-mouse IgG detection
T1 construct: also called human GFRAL-His fusion protein; not shown: His tag
T1 sequence (looked up): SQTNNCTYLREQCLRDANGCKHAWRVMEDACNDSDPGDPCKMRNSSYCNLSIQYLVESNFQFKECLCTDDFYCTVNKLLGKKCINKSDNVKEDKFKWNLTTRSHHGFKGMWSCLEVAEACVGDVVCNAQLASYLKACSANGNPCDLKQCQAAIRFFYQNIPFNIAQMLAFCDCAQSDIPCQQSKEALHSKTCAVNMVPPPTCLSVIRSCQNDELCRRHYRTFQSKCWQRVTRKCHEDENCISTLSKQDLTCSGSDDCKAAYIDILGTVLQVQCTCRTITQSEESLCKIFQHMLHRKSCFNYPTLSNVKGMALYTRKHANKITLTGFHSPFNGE
Description: (§1) The ELISA assay had the following protocols. Human GFRAL-His protein, cynomolgus monkey GFRAL-His protein, or mouse GFRAL-Fc protein were coated on 96-well plates, and after blocking the wells with PBS/1% BSA solution, the hybridoma supernatant or purified antibodies were added to the reaction wells. After incubation for 1 hour at room temperature, HRP-labeled anti-mouse IgG (Fab region) antibody was added to the reaction wells to incubate for an additional hour at room temperature. After the substrate and stop solution were added successively, the OD₄₅₀ values were read. The OD₄₅₀ values were used to verify and assess the binding ability of the antibodies to the GFRAL proteins.

[1] = target: Cynomolgus monkey GFRAL-His protein (cynomolgus monkey); assay: as above
Description: as §1

[2] = target: T2, Human GFRAL (hGFRAL) on HEK293 reporter cells with human RET (human, UniProt Q6UXV0 19-394); assay: cell-based or functional assay
T2 sequence (looked up): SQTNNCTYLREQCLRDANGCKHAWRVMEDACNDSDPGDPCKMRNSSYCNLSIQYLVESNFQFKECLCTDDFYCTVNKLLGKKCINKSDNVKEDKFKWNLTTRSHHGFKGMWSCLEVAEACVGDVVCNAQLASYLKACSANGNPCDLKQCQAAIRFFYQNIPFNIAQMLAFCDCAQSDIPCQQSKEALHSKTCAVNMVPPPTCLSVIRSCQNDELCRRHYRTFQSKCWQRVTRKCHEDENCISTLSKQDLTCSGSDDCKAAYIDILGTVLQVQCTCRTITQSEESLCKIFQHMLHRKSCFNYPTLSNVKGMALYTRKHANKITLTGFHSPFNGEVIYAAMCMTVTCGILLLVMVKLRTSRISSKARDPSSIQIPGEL

[3] = target: T3, Mouse GFRAL (mGFRAL) on HEK293 reporter cells with mouse RET (mouse, UniProt Q6SJE0 20-393); assay: cell-based or functional assay
T3 sequence (looked up): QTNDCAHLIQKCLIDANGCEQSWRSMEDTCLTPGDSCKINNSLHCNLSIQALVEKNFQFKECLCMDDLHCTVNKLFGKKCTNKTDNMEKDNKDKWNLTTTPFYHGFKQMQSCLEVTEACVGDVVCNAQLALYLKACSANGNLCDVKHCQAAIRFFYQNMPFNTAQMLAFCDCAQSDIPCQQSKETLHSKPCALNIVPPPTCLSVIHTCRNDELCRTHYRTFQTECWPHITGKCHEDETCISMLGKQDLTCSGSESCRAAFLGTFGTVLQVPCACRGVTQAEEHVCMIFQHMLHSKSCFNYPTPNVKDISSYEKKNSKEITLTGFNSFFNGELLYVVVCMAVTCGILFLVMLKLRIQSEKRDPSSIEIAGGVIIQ

[4] = target: T2, Human GFRAL (hGFRAL) on HEK293 reporter …; assay: cell-based or functional assay; remark: listed apart in the source
[5] = target: T3, Mouse GFRAL (mGFRAL) on HEK293 reporter …; assay: cell-based or functional assay; remark: listed apart in the source

| Binder | EC50 (Human GFRAL-His protein) [nM] | EC50 [1] [nM] | IC50 (nM), luciferase reporter gene assay, Human GFRAL/human RET [2] [nM] | IC50 (nM), luciferase reporter gene assay, Mouse GFRAL/mouse RET [3] [nM] | IC50 (nM), luciferase reporter gene assay, Human GFRAL/human RET [4] [nM] | IC50 (nM), luciferase reporter gene assay, Mouse GFRAL/mouse RET [5] [nM] |
| --- | --- | --- | --- | --- | --- | --- |
| 33B12 (antibody, V domains shown, Murine hybridoma antibody, purified) VH: QVQLQQPGTELVKPGASVKLSCKASGYTFTRNWMHWLKQRPGQGLEWIGEIDPSDSYTHYNQKFKGKATLTVEMSSSTAYMQLRSLTSEDSAVYYCARVGNYDNGTDRLYAMDYWGQGTSVTVSS VL: DIVLTQSPASLAVSLGQRATISCRASESVDNFGNTFLHWFRQKPGQPPKLLIYRASNLESGIPARFSGSGSRTDFTLTINPVEADDVATYYCQQNNEDPWTFGGGTKLEIK | 0.06 | 0.08 | 7.04 | > 694 |  |  |
| 82G8 (antibody, V domains shown, Murine hybridoma antibody, purified) VH: QVQLKESGPGLVAPSQSLSITCTVSGFSLTGHGVNWVRQPPGKGLEWLGMIWGDGYTDYNSALKSRLSISKDNSKSQVFLKMNSLQTDDTATYYCARDTYGRTYDYAMDYWGQGTSVTVSS VL: DIVLTQSPASLAVSLGQRAAISCRASESVDNYGNSFMHWYQQKPGQPPKLLIYRASNLESGIPARFSGSGSRTDFTLTINPVEADDVATYYCQQSNEDPRTFGGGTKLEIK | 0.03 | 0.04 | 5.67 | > 694 |  |  |
| 36D1 (antibody, V domains shown, Murine hybridoma antibody, purified) VH: QVQLQQPGTEFVKPGASVKLSCKASGYTFTRNWMHWLKQRPGQGLEWIGEIDPSDSYTHYNQKFKGKATLTVDKSSSTAYMQLSSLTSEDSAVYYCARVGNYDNGKDRLYAMDYWGQGTSVTVSS VL: DIVLTQSPASLAVSLGQRATISCRASESVDNFGNTFLHWFRQKPGQPPKLLIYRASNLESGIPARFSGSGSRTDFTLTINPVEADDVATYYCQQNNEDPWTFGGGTKLEIK | 0.18 | 0.07 | 6.89 | > 694 |  |  |
| 26D7H5eL5c (antibody, V domains shown) VH: QVQLVQSGSELKKPGASVKVSCKVSGYTFTDYGMNWVRQAPGQGLEWVGWINTYTGEPTYADDFKDRFVFSLDTSVSTAYLQISSLKAEDTAVYYCARRYGYDAGIDAWGQGTTVTVSS VL: DIVLTQSPASLAVSPGQRATITCRASESVDSYGNNLMHWYQQKPGQPPKLLIYLASYLESGVPARFSGSGSGTDFTLTINPVEANDTANYYCQQNNESPWTFGGGTKLEIK |  |  |  |  | 8.3 | 0.7 |
| 26D7H5fL5c (antibody, V domains shown) VH: QIQLVQSGSELKKPGASVKISCKVSGYTFTDYGMNWVRQAPGQGLEWVGWINTYTGEPTYADDFKDRFVFSLDASVSTAYLQISSLKAEDTAVYYCARRYGYDAGIDAWGQGTTVTVSS VL: DIVLTQSPASLAVSPGQRATITCRASESVDSYGNNLMHWYQQKPGQPPKLLIYLASYLESGVPARFSGSGSGTDFTLTINPVEANDTANYYCQQNNESPWTFGGGTKLEIK |  |  |  |  | 8.9 | 0.4 |
| 26D7-mVH + mVL (antibody, V domains shown) VH: QIQLVQSGPELKKPGETVKISCKVSGYTFTDYGMNWVKQTPGKDLKWVGWINTYTGEPTYADDFKDRFAFSLEASASTAYLQINNLKNEDTATYFCARRYGYDAGIDCWGQGTTLTVSS VL: NIVLTQSPPSLAVSLGQRATISCRASESVDSYGNNLMHWYQQKPGQPPKLLIYLASYLESGVPARFSGSGSRTDFTLTIDPVEADDAATYYCQQNNEDPWTFGGGTKLEIK |  |  |  |  | 8.7 | 0.7 |
| 2D4H6aL6b (antibody, V domains shown) VH: EVQLVESGGGLVKPGGSLRLSCAASGFTFSSFVMSWVRQAPGKGLEWVASITSGGTTFYPESVRGRFTISRDNAKNTLYLQMSSLRAEDTAVYYCARGPPQFSSLSMDYWGQGTTVTVSS VL: DIQMTQSPSSLSASVGDRVTITCKASQNVGTAVSWFQQKPGKAPKLLIYSASNRYTGVPSRFSGSGSGTDFTLTISSLQPEDFATYYCQQYSSLFTFGGGTKLEIK |  |  |  |  | 24.4 | 1.4 |
| 2D4H6cL6c (antibody, V domains shown) VH: EVQLVESGGGLVKPGGSLRLSCAASGFTFSSFVMSWVRQAPGKGLEWVASITSGGTTFYPDSVKGRFTISRDNARNILYLQMSSLRAEDTAVYYCARGPPQFSSLSMDYWGQGTTVTVSS VL: DIQMTQSPSSLSASVGDRITITCKASQNVGTAVSWFQQKPGKAPKLLIYSASNRYTGVPDRFSGSGSGTDFTLTISSLQPEDFATYYCQQYSSLFTFGGGTKLEIK |  |  |  |  | 22.5 | 1.3 |
| 26D7H1aL2a (antibody, V domains shown) VH: QVQLVQSGAEVKKPGASVKVSCKASGYTFTDYGMNWVRQAPGQGLEWMGWINTYTGEPTYADDFKDRVTMTTDTSTSTAYMELRSLRSDDTAVYYCARRYGYDAGIDAWGQGTLVTVSS VL: EIVLTQSPGTLSLSPGERATLSCRASESVDSYGNNLMHWYQQKPGQAPRLLIYLASYLESGVPDRFSGSGSGTDFTLTISRLEPEDFATYYCQQNNESPWTFGQGTKVEIK |  |  |  |  | 2.6 | 7.7 |
| 26D7H4aL4a (antibody, V domains shown) VH: QIQLVQSGAEVKKPGASVKISCKVSGYTFTDYGMNWVRQTPGQGLKWVGWINTYTGEPTYADDFKDRFTFTLDASTSTAYLEIRSLRSDDTAVYFCARRYGYDAGIDAWGQGTLLTVSS VL: EIVLTQSPGTLSVSPGERATISCRASESVDSYGNNLMHWYQQKPGQAPRLLIYLASYLESGVPARFSGSGSRTDFTLTISRVEPEDFATYYCQQNNESPWTFGQGTKLEIK |  |  |  |  | 5.7 | 0.1 |
| 26D7H2dL2a (antibody, V domains shown) VH: QVQLVQSGAEVKKPGASVKISCKASGYTFTDYGMNWVRQAPGQGLKWMGWINTYTGEPTYADDFKDRVTFTLDASTSTAYMELRSLRSDDTAVYYCARRYGYDAGIDAWGQGTLVTVSS VL: EIVLTQSPGTLSLSPGERATLSCRASESVDSYGNNLMHWYQQKPGQAPRLLIYLASYLESGVPDRFSGSGSGTDFTLTISRLEPEDFATYYCQQNNESPWTFGQGTKVEIK |  |  |  |  | 6.5 | 3 |
| 26D7H2aL2a (antibody, V domains shown) VH: QVQLVQSGAEVKKPGASVKVSCKVSGYTFTDYGMNWVRQAPGQGLEWVGWINTYTGEPTYADDFKDRFTFTLDTSTSTAYMELRSLRSDDTAVYFCARRYGYDAGIDAWGQGTLVTVSS VL: EIVLTQSPGTLSLSPGERATLSCRASESVDSYGNNLMHWYQQKPGQAPRLLIYLASYLESGVPDRFSGSGSGTDFTLTISRLEPEDFATYYCQQNNESPWTFGQGTKVEIK |  |  |  |  | 7.6 | 1.6 |
| 90E1 (antibody, V domains shown) VH: EVQLQQSGPELVKPGASVKMSCKASGYTFTSYVIHWVKQEPGQGLEWIGYINPYNDDINYNEKFKGKATLTSDKSSSTAYMEFSSLTSEDSAVYYCARYDYDWYFDVWGAGTAVTVSS VL: not shown |  |  | 81.4 | 75.5 |  |  |
| 2D4-mVH + mVL (antibody, V domains shown) VH: EVNLVESGGGLVKPGGPLKLSCAASGFTFSSFVMSWVRQTPEKRLEWVASITSGGTTFYPDSVKGRFTISRDNARNILYLQMSNLRSGDTAMYYCARGPPQFSSLSMDYWGQGTSVTVSS VL: DIVMTQSQKFMSTSVGDRITITCKASQNVGTAVSWFQQKPGQVPKLLIYSASNRYTGVPDRFTGSGSGTEFTLTISNIQSEDLADYFCQQYSSLFTFGSGTKLEIK |  |  |  |  | 23.8 | 1.4 |
